Reference: patent publication US20100260765A1 (AstraZeneca / MedImmune, published 2010)

B1: 27A3 (antibody, V domains shown)
VH: QLQLQESGPGLVKPSETLSLTCTVSGGSISSRSDYWGWIRQPPGKGLEWIGTIYYSGDTYYNPSLKSRVTISVDTSKNQFSLKLSSVTAADTAVYYCARQQLVLYYFDYWGQGTLVTVSS
VL: EIVLTQSPGTLSLSPGERATLSCRASQSVSSSYLAWYQQKPGQAPRLLIYATSNRATGIPDRFSGSGSGTDFTLTISRLEPEDFAVYYCQQHGSSPPLTFGGGTKVEIK
notes: Fully human monoclonal antibody from a XenoMouse hybridoma (IgG2 or IgG4 strain), purified
B2: 32G7 (antibody, V domains shown)
VH: EVQLVESGGGLVKPGGSLRLSCAASGFTISSYSMNWVRQAPGKGLEWVSFISSRSNYIYYADSVKGRFTISRDNAKNSLYLQMNSLRAEDTAVYYCSKDDWFEELWGQGTLVTVSS
VL: DIQMTQSPSSLSASVGDRVTITCRASQDIRNDLGWYQQKPGKAPKRLIYAASSLQSGVPSRFSGSGSGTEFTLTISSLQPEDFATYYCLQHNSFPWTFGQGTKVEIK
notes: as for B1
B3: 29H3 (antibody, V domains shown)
VH: QVQLVQSGAEVKKPGASVKVSCKASGYTFTSYDINWVRQATGQGLEWMGWMNPNSGKTGYAQKFQGRVTMTRNTSINTAYMELSSLRSEDTAVYYCARGGYSNLGWFDPWGQGTLVTVSS
VL: DIQMTQSPSSVSASVGDRVTITCRASQGISSWLVWYHQKPGKAPKLLIYGASSLQSGVPSRFSGSGSGTDFTLTISSLQPEDFATYYCQQANNFPFTFGPGTKVDIK
notes: as for B1

What was measured:
soluble KDR Ig4-7 domain [1] = biological target: T1, soluble KDR Ig4-7 domain (human, UniProt P35968 328-764); test: ELISA, KDR Ig4-7 coat (1:1 diln.), antibody 0.01 ug/mL
T1 construct: domain: Ig4-7 domain; also called b-KDRIg4-7-myc-his; Ig4-7 domain of KDR; not shown: myc-his tag of the pSecTag construct
T1 sequence (P35968 328-764): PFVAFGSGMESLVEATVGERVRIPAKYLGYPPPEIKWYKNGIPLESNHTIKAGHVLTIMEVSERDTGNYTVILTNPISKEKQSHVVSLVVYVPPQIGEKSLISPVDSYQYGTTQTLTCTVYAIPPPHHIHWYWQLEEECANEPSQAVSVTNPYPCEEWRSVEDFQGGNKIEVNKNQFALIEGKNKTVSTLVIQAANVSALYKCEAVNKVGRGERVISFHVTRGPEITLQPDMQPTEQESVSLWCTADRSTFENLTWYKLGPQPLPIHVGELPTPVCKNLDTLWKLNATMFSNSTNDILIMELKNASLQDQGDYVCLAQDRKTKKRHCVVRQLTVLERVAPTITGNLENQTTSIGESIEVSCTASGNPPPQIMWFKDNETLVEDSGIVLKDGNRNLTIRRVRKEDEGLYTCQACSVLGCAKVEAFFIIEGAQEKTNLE
Experimental: (§1) The cross-reactivity of purified antibodies was tested against KDR mouse ortholog KDR mouse ortholog (mouse VEGFR2, or Flk-1) and human VEGFR1 (Flt-1). The ability of the antibodies to bind soluble KDR Ig4-7 domain and to the entire KDR extracellular domain (ECD) was also measured.
(§2) Cross-reactivity experiments were carried out and measured using an ELISA based assay as described in Example 6. […] Antibody controls included IgG1 and IgG4 (Sigma-Aldrich, Cat. #15154 and #14639, respectively).

soluble KDR Ig4-7 domain [2] = biological target: T1, soluble KDR Ig4-7 domain; test: ELISA, KDR Ig4-7 coat (1:1 diln.), antibody 0.1 ug/mL
Experimental: as §1, §2

human KDR [3] = biological target: T2, human KDR (human, UniProt P35968 20-1356); test: FACS competition on 293T/human KDR transfectants; antibody 5 ug/mL first, then competitor VEGF165 50 ng/mL; bound VEGF165 detected
T2 construct: whole, on cells; also called VEGFR2; endogenously-expressed KDR in HUVEC cells
T2 sequence (P35968 20-1356): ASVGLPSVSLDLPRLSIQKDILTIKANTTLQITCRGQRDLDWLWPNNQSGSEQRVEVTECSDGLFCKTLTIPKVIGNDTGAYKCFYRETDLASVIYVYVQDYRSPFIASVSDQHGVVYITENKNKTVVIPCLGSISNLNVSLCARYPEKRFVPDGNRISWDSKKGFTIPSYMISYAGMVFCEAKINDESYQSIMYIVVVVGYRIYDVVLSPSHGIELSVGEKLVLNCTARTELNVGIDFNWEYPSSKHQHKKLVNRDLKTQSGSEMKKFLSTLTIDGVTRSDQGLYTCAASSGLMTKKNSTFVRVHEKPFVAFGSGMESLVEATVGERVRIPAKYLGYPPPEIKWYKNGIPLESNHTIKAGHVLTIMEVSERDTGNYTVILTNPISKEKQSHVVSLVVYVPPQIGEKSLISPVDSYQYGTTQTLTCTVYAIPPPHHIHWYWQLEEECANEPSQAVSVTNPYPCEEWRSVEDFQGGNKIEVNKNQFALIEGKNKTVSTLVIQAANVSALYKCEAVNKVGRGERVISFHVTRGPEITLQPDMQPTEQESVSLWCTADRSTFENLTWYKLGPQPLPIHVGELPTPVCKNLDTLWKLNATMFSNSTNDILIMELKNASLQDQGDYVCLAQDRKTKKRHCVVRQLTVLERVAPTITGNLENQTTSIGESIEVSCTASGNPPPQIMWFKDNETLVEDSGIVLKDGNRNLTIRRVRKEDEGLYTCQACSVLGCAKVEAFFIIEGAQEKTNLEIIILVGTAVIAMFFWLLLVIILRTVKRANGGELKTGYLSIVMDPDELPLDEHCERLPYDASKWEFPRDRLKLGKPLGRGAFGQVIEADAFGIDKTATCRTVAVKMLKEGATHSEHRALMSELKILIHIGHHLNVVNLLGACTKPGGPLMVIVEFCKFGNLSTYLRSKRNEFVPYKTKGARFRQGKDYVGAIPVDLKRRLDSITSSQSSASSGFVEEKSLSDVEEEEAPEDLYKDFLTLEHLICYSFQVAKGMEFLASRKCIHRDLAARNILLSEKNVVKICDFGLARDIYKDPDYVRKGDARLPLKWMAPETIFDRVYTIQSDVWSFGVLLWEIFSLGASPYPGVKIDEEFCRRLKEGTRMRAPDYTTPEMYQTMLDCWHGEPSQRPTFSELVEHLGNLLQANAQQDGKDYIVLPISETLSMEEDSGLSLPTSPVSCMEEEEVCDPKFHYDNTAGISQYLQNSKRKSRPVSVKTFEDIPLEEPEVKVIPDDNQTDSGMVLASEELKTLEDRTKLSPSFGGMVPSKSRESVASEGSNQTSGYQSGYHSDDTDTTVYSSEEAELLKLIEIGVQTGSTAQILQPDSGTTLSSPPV
Experimental: (§3) Transfected cells were then seeded at 50,000 cells/well and incubated with 5 μg/mL of candidate antibody for one hour at 4° C. […] After washing, the cells were incubated with Cy5-conjugated rabbit anti-goat antibody plus 7AAD for 15 minutes at 4° C.

human KDR [4] = biological target: T2, human KDR; test: FACS competition on 293T/human KDR transfectants; antibody 5 ug/mL first, then competitor VEGF165 50 ng/mL; inhibition of VEGF binding
Experimental: as §3

[5] = biological target: T3, whole KDR-ECD (Cat. # 676490, Calbiochem) (human, UniProt P35968 20-764); test: ELISA, KDR-ECD coat 5 ug/mL, antibody 1 ug/mL
T3 construct: extracellular domain; Bought soluble protein; also called soluble KDR; VEGF Receptor 2 D1-7
T3 sequence (P35968 20-764): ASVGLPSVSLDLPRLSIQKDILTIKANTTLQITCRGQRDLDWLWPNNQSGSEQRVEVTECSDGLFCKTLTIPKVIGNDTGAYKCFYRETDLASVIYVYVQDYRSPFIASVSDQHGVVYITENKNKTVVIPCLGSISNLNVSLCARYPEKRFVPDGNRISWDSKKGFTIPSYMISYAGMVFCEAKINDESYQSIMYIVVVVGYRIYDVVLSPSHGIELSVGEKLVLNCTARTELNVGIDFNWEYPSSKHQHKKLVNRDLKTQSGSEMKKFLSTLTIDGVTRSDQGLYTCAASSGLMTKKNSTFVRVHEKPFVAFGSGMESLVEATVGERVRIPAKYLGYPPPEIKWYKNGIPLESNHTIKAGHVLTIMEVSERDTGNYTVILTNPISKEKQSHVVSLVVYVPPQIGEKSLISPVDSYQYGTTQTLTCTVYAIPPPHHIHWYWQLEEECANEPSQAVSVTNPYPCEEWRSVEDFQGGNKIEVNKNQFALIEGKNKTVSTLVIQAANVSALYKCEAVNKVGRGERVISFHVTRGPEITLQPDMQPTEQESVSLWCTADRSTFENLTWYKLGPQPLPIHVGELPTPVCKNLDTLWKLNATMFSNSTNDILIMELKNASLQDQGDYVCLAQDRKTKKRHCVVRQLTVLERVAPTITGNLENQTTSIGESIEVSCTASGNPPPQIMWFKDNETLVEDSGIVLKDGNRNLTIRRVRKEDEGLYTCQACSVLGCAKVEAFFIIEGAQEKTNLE
Experimental: as §1, §2

human KDR [6] = biological target: T2, human KDR; test: cell-based or functional assay
human KDR [7] = biological target: T2, human KDR; test: cell-based or functional assay; remark: listed apart in the source
cynomolgus KDR = biological target: T4, cynomolgus KDR (cynomolgus monkey, UniProt A0A2K5VE63 20-1356); test: FACS on Cyno KDR/293T transfectants, antibody 5 ug/mL
T4 construct: whole, on cells; also called Cyno KDR
T4 sequence (A0A2K5VE63 entry or part of it): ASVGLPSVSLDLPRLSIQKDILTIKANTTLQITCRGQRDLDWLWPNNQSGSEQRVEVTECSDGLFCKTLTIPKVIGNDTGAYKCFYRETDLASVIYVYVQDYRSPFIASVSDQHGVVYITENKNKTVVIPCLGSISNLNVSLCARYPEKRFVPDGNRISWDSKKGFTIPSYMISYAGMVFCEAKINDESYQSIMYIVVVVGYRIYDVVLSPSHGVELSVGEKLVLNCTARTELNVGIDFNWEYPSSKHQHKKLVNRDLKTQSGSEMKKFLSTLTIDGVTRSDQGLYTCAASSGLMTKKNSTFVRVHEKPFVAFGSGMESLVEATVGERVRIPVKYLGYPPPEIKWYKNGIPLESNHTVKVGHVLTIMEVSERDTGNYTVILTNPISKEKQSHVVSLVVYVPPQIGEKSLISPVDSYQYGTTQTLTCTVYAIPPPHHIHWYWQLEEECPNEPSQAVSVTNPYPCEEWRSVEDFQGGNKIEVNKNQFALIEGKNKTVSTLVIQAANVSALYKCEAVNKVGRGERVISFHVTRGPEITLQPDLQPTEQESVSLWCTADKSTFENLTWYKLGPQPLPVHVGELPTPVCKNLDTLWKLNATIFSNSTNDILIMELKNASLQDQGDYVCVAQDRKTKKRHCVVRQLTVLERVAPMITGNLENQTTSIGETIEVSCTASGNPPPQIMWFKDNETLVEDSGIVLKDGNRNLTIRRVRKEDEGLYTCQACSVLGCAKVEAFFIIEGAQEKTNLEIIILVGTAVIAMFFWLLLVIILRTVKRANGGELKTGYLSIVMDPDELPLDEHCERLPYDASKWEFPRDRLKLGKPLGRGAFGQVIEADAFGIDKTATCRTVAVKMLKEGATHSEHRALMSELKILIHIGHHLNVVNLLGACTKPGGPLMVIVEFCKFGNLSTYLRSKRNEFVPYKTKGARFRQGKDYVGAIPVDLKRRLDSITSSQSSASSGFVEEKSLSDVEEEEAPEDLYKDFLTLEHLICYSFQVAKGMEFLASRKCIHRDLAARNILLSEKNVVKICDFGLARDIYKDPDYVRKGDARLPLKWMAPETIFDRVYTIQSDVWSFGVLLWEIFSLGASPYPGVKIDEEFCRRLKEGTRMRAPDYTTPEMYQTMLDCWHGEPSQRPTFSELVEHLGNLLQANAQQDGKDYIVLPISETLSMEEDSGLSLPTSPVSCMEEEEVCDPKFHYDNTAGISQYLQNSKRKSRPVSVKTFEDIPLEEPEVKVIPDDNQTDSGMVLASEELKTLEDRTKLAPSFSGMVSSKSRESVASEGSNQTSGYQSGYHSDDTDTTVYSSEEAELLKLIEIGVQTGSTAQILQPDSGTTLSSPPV
Experimental: The binding of purified antibodies to cell-bound cynomolgus KDR (with parental cells as negative control) was tested by FACS analysis in this assay.
Cynomolgus KDR was cloned in 3 pieces. One piece was PCR amplified from cynomolgus lung cDNA, and the remaining two pieces were PCR amplified from cynomolgus kidney cDNA. The three PCR products were inserted into pCR3.1 Bid vector. […] Transfected cells were seeded at 50,000 cells/well and incubated with 5 μg/mL of candidate antibody for one hour at 4° C. The cells were then washed and incubated with secondary antibody (Cy5-conjugated goat anti-human antibody, or Cy5-conjugated rabbit anti-goat antibody, plus 7-Amino-Actinomycin (7AAD)) for 15 minutes at 4° C. Binding between cynomolgus KDR and purified antibody was detected by FACS analysis.

[8] = biological target: T3, whole KDR-ECD (Cat. # 676490, …); test: ELISA, KDR-ECD coat 5 ug/mL, antibody 0.01 ug/mL
Experimental: as §1, §2

soluble KDR Ig4-7 domain [9] = biological target: T1, soluble KDR Ig4-7 domain; test: ELISA, KDR Ig4-7 coat (1:1 diln.), antibody 1 ug/mL
Experimental: as §1, §2

human KDR [10] = biological target: T2, human KDR; test: FACS titration of purified antibody on HUVEC cells (FACS Kd)
Experimental: The binding affinities of the purified antibodies for endogenously-expressed KDR in HUVEC cells was measured. HUVEC cells were seeded at 150,000 cells/well and incubated with titrations of purified antibody for 4 hours at 4° C. The cells were then washed and incubated with goat anti-human IgG-Fc-Cy5+5 μg/mL 7-Amino-Actinomycin (7AAD) for 30 minutes at 4° C. Bound KDR was detected using FACS analysis.

human KDR [11] = biological target: T2, human KDR; test: cell-based or functional assay; remark: listed apart in the source
[12] = biological target: T3, whole KDR-ECD (Cat. # 676490, …); test: ELISA, KDR-ECD coat 5 ug/mL, antibody 0.1 ug/mL
Experimental: as §1, §2

[13] = biological target: T5, mouse KDR (Flk-1)/Fc (Cat. #443-KD/CF, R&D Systems, Inc.) (mouse, UniProt P35918 20-762); test: ELISA, Flk-1 coat 5 ug/mL, antibody 0.1 ug/mL
T5 construct: Bought reagent; also called mouse VEGFR2; KDR mouse ortholog; not shown: Fc of the bought fusion protein
T5 sequence (P35918 20-762 limits assumed): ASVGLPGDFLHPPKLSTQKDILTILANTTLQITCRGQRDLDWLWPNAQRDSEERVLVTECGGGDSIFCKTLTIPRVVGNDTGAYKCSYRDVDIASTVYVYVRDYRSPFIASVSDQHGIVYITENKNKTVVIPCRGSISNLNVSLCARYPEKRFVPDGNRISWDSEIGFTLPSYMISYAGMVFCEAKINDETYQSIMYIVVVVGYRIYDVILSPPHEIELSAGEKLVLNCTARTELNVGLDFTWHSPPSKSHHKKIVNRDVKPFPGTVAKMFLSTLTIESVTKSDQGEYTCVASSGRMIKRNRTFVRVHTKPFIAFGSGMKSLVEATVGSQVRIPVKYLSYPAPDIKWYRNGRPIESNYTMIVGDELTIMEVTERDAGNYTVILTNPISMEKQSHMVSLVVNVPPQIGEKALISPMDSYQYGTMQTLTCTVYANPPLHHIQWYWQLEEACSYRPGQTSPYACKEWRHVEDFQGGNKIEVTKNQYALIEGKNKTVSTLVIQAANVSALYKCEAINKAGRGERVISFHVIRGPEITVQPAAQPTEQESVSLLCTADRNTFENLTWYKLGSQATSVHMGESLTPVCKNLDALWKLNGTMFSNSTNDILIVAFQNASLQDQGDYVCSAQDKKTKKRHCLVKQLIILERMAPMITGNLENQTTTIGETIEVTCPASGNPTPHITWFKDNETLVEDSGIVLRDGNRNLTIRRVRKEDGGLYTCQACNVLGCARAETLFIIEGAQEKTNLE
Experimental: as §1, §2

[14] = biological target: T5, mouse KDR (Flk-1)/Fc (Cat. #443-KD/CF, …); test: ELISA, Flk-1 coat 5 ug/mL, antibody 0.01 ug/mL
Experimental: as §1, §2

[15] = biological target: T5, mouse KDR (Flk-1)/Fc (Cat. #443-KD/CF, …); test: ELISA, Flk-1 coat 5 ug/mL, antibody 1 ug/mL
Experimental: as §1, §2

Binder | ELISA reading (soluble KDR Ig4-7 domain [1]) | ELISA reading (soluble KDR Ig4-7 domain [2]) | ELISA reading [5] | HUVEC survival, Maximum Inhibition at 50 nM (% Inhibition), Average (human KDR [6]) | HUVEC survival, Maximum Inhibition at 50 nM (% Inhibition), N = 1 (human KDR [6]) | HUVEC survival, Maximum Inhibition at 50 nM (% Inhibition), N = 2 (human KDR [6]) | 6-keto Prostaglandin F1α release, EC50 (nM), Average (human KDR [7]) | 6-keto Prostaglandin F1α release, Maximum Inhibition (% Inhibition), Average (human KDR [7]) | 6-keto Prostaglandin F1α release, Maximum Inhibition (% Inhibition), N = 1 (200 nM) (human KDR [7]) | 6-keto Prostaglandin F1α release, Maximum Inhibition (% Inhibition), N = 2 (333 nM) (human KDR [7]) | ELISA reading [8] | ELISA reading (soluble KDR Ig4-7 domain [9]) | Kd (human KDR [10]) | KDR tyrosine phosphorylation in HUVEC, EC50 (nM), Average (human KDR [11]) | KDR tyrosine phosphorylation in HUVEC, EC50 (nM), N = 1 (human KDR [11]) | KDR tyrosine phosphorylation in HUVEC, EC50 (nM), N = 2 (human KDR [11]) | KDR tyrosine phosphorylation in HUVEC, Maximum Inhibition at 100 nM (% Inhibition), Average (human KDR [11]) | KDR tyrosine phosphorylation in HUVEC, Maximum Inhibition at 100 nM (% Inhibition), N = 1 (human KDR [11]) | KDR tyrosine phosphorylation in HUVEC, Maximum Inhibition at 100 nM (% Inhibition), N = 2 (human KDR [11]) | ELISA reading [12] | other results
B1 | 0.08 | 0.075 | 1.97 | 95% | 95% | 94% | 5.6 nM | 49% | 49% | 49% | 0.093 | 0.078 | 5.4 nM | 3.1 nM | 3.4 nM | 2.9 nM | 78% | 77% | 79% | 0.111 | FACS Geometric Mean Fluorescence (bound VEGF165) (human KDR [3]): 118; % Inhibition (human KDR [4]): 9%; 6-keto Prostaglandin F1α release, EC50 (nM), N = 1 (human KDR [7]): 5.5 nM; 6-keto Prostaglandin F1α release, EC50 (nM), N = 2 (human KDR [7]): 5.7 nM; FACS Geometric Mean Fluorescence (cynomolgus KDR): 89.7
B2 | 0.933 | 2.31 | 2.36 | 72% | 73% | 72% | 23.1 nM | 42% | 28% | 55% | 0.103 | 2.65 | 0.2 nM | 0.6 nM | 0.6 nM | 0.6 nM | 73% | 69% | 77% | 0.307 | ELISA reading [13]: 2.14; 6-keto Prostaglandin F1α release, EC50 (nM), N = 1 (human KDR [7]): 11.2 nM; 6-keto Prostaglandin F1α release, EC50 (nM), N = 2 (human KDR [7]): 35.1 nM; ELISA reading [14]: 0.988; ELISA reading [15]: 2.67
B3 | 1.14 | 2.36 | 2.62 | 11% | 4% | 18% |  | 5% | 2% | 8% | 0.099 | 3.02 | 0.5 nM | 0.4 nM | 0.5 nM | 0.4 nM | 32% | 33% | 30% | 0.306 | ELISA reading [13]: 2.35; ELISA reading [14]: 1.14; ELISA reading [15]: 3.04
